In the supplement of paper PMC7877785:
± gives the uncertainty stated by the source.

Experiment: self-splicing fitness, log relative to wild type (ln ratio); higher = more splicing; Tetrahymena group I intron in knt gene, E. coli kanamycin selection, DiMSum; sequences stand for … in CUCUCU…GGAGGGAAAAGUUAUCAGGCAUGCACCUGGUAGCUAGUCUUUAAACCAAUAGAUUGCAUCGGUUUAAAAGGCAAGACCGUCAAAUUGCGGGAAAGGGGUCAACAGCCGUUCAGUACCAAGUCUCAGGGGAAACUUUGAGAUGGCCUUGCAAAGGGUAUGGUAAUAAGCUGACGGACAUGGUCCUAACCACGCAGCCAAGUCCUAAGUCAACAGAUCUUCUGUUGAUAUGGAUGCAGUUCACAGACUAAAUGUCGGUCGGGGAAGAUGUAUUCUUCUCAUAAGAUAUAGUCGGACCUCUCCUUAAUGGGAGCUAGCGGAUGAAGUGAUGCAACACUGGAGCCGCUGGGAACUAAUUUGUAUGCGAAAGUAUAUUGAUUAGUUUUGGAGUACUCGUGGUCG
Summary of the method: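 Fitness was computed with DiMSum as the error-weighted combination of replicate fold changes, kanamycin versus none, each normalised to wild type. The library randomised all eight intron nucleotides of the P1ex region, with the intron placed in the knt kanamycin-resistance gene on pET-22b(+) in E. coli BL21(DE3). Six replicate transformations were grown overnight at 37°C or 30°C on LB agar with or without 25 μg/mL kanamycin, plus 100 μg/mL carbenicillin, 50 μM IPTG and 0.2% rhamnose. Pooled colonies were amplicon-sequenced on an Illumina HiSeq 2500.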

| Sequence | self-splicing fitness (ln) (30 °C) | self-splicing fitness (ln) (37 °C) |
| --- | --- | --- |
| GAUCAGCAAUAUUACGCGUU | -2.22 ± 0.1 | -1.21 ± 0.12 |
| GGACAGCAAUAUUACGCUAG | -1.85 ± 0.13 | -0.798 ± 0.17 |
| AAGUAGCAAUAUUACGACAA | -0.505 ± 0.073 | 0.0804 ± 0.084 |
| AGAGAGCAAUAUUACGACAA | – | -2.46 ± 0.48 |
| ACGAAGCAAUAUUACGGUGC | -4.82 ± 0.27 | -3.17 ± 0.2 |
| UUAAAGCAAUAUUACGUUCG | 0.19 ± 0.084 | -0.157 ± 0.096 |
| UGACAGCAAUAUUACGGGUC | -3.81 ± 0.24 | -2.94 ± 0.2 |
| UCGAAGCAAUAUUACGCCUA | – | -1.71 ± 0.42 |
| CCCUAGCAAUAUUACGUCCG | -4.17 ± 0.26 | -2.57 ± 0.23 |
| UGACAGCAAUAUUACGUUGU | -3.48 ± 0.15 | -2.58 ± 0.2 |
| CAGCAGCAAUAUUACGCUGG | -2.69 ± 0.15 | -2.43 ± 0.17 |
| GUGUAGCAAUAUUACGGGAU | -2.93 ± 0.17 | -2.18 ± 0.2 |
| GCUGAGCAAUAUUACGUAAA | -2.97 ± 0.19 | -2.31 ± 0.17 |
| GAGCAGCAAUAUUACGCUUC | -2.37 ± 0.28 | – |
| UGUCAGCAAUAUUACGGGUG | -0.605 ± 0.042 | -0.00626 ± 0.067 |
| GCAGAGCAAUAUUACGAUUU | -2.51 ± 0.14 | -2.16 ± 0.19 |
| AGUUAGCAAUAUUACGUGUA | -2.26 ± 0.23 | -0.97 ± 0.15 |
| CUAAAGCAAUAUUACGAUCG | 0.485 ± 0.073 | 0.485 ± 0.1 |
| CGGCAGCAAUAUUACGCGUG | -1.47 ± 0.1 | -0.594 ± 0.11 |
| GCUCAGCAAUAUUACGAUUC | -0.0882 ± 0.054 | 0.832 ± 0.075 |
| AAAUAGCAAUAUUACGCCAG | -2.53 ± 0.24 | -2.09 ± 0.42 |
| AUGCAGCAAUAUUACGCGCU | -1.37 ± 0.097 | -1.22 ± 0.12 |
| CCACAGCAAUAUUACGGAGA | -3.01 ± 0.21 | -1.77 ± 0.17 |
| GCAGAGCAAUAUUACGUAUU | -3.82 ± 0.23 | -1.9 ± 0.16 |
| CCCCAGCAAUAUUACGUCGA | -4.09 ± 0.23 | -2.27 ± 0.15 |

| Sequence | self-splicing fitness (ln) (30 °C) | self-splicing fitness (ln) (37 °C) |
| --- | --- | --- |
| GGUGAGCAAUAUUACGAGGU | -2.22 ± 0.29 | -1.68 ± 0.27 |
| UGGCAGCAAUAUUACGAGAG | -2.95 ± 0.21 | -2.74 ± 0.29 |
| AGGGAGCAAUAUUACGACAG | -2.9 ± 0.13 | -2.62 ± 0.22 |
| CGUAAGCAAUAUUACGAGCC | – | -1.87 ± 0.22 |
| UAUGAGCAAUAUUACGGUGC | -3.01 ± 0.41 | -0.888 ± 0.3 |
| GCUAAGCAAUAUUACGACAC | -0.804 ± 0.074 | 0.369 ± 0.11 |
| AGUUAGCAAUAUUACGAGGC | -3.83 ± 0.27 | -3.27 ± 0.23 |
| UGGAAGCAAUAUUACGGCAG | -1.15 ± 0.16 | -0.772 ± 0.25 |
| AUUAAGCAAUAUUACGUUAA | -2.52 ± 0.15 | -1.35 ± 0.12 |
| GCGGAGCAAUAUUACGACGA | -0.227 ± 0.16 | -0.189 ± 0.14 |
| AUAAAGCAAUAUUACGUUCU | 0.0113 ± 0.08 | 0.404 ± 0.12 |
| CCCCAGCAAUAUUACGAGCA | -1.5 ± 0.14 | -3.13 ± 0.34 |
| GUGGAGCAAUAUUACGUCUU | -2.36 ± 0.24 | -2.36 ± 0.36 |
| CCUAAGCAAUAUUACGUAAC | -2.97 ± 0.17 | -1.77 ± 0.29 |
| GUGAAGCAAUAUUACGGCAU | 0.0954 ± 0.083 | 0.334 ± 0.089 |
| ACGAAGCAAUAUUACGGGAC | -4.36 ± 0.24 | -2.68 ± 0.18 |
| GAUCAGCAAUAUUACGGCUU | -0.164 ± 0.092 | -0.596 ± 0.1 |
| CCUGAGCAAUAUUACGGAAU | -4.68 ± 0.23 | -2.85 ± 0.16 |
| ACGUAGCAAUAUUACGGAUU | -2.5 ± 0.14 | -1.8 ± 0.2 |
| GUAAAGCAAUAUUACGUUGA | -1.97 ± 0.071 | -0.945 ± 0.098 |
| CAUGAGCAAUAUUACGUCUC | -2.83 ± 0.22 | – |
| CGUUAGCAAUAUUACGCUGA | -2.78 ± 0.3 | -2.66 ± 0.29 |
| GACGAGCAAUAUUACGGUCU | -2.33 ± 0.15 | -2.8 ± 0.27 |
| GACAAGCAAUAUUACGCGUC | -4.02 ± 0.22 | -3.45 ± 0.39 |
